Laboratory results as given in paper PMC6739812 (Protein Science : A Publication of the Protein Society, 2019).

Molecular target: the molecule itself
Experiment: SEC-MALS

B1: InvCΔ79 (Salmonella T3SS ATPase InvC lacking the first 79 residues, with C-terminal Strep-tag) (domain or fragment, Salmonella typhimurium, UniProt P0A1B9 80-431, looked up)
chain: GRALSAWVGYSVLGAVLDPTGKIVERFTPEVAPISEERVIDVAPPSYASRVGVREPLITGVRAIDGLLTCGVGQRMGIFASAGCGKTMLMHMLIEQTEADVFVIGLIGERGREVTEFVDMLRASHKKEKCVLVFATSDFPSVDRCNAAQLATTVAEYFRDQGKRVVLFIDSMTRYARALRDVALASGERPARRGYPASVFDNLPRLLERPGATSEGSITAFYTVLLESEEEADPMADEIRSILDGHLYLSRKLAGQGHYPAIDVLKSVSRVFGQVTTPTHAEQASAVRKLMTRLEELQLFIDLGEYRPGENIDNDRAMQMRDSLKAWLCQPVAQYSSFDDTLSGMNAFADQN
- stoichiometry N: 2
